The values below come from PMC2783965.

Where two headings read alike, the source gives them in different places.

What all share (experiment): FRET or BRET
(In BRET a luciferase serves as donor, and the signal depends on an acceptor being close.)

Test [1] has as its target 43S pre-initiation complex without eIF1 (40S•eIF1A-TAMRA•TC) (S. cerevisiae) (UniProt P38912).
Test [2] shares this target. This is another data set of the same source.
Test [3] shares this target. The source holds these as a separate data set.
For test [4] the target is unchanged. The source holds these as a separate data set.
The target is the same in test [5]. This is another data set of the same source.

Chain of UniProt P38912 (P38912 whole entry, looked up, one chain of several): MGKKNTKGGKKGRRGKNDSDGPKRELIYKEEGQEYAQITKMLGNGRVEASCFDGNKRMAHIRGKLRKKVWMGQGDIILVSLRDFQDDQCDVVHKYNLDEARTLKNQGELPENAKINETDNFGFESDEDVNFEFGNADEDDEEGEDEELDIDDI

With “fluorescein-labeled WT eIF1 (from UniProt P32911 1-108) (natural protein)”, the kobs of eIF1 dissociation (slow phase) in test [1] was found to be 0.56 s⁻¹; in test [2], 0.4 s⁻¹; in test [3] it was 0.13 s⁻¹; in test [4], 0.4 s⁻¹; in test [5], 0.14 s⁻¹.

In the case of “fluorescein-labeled G107K eIF1 (from UniProt P32911 1-108) (natural protein)”, the kobs of eIF1 dissociation (slow phase) in test [2] is 0.1 s⁻¹; in test [3], 0.08 s⁻¹.
